This is an account of results in patent US20200392233A1 (ACCELERON PHARMA, published 2020).

Assay [1] deals with T1, ALK7-Fc comprising protein.
T1 construct: It is probably the human protein
The assay can be described thus: SPR (Biacore T100/T200) at 25 °C, antibody captured on FAB chip, ALK7-Fc analyte, 1:1 fit. The procedure: (§1) Experiments were performed using a Biacore T100/T200 biosensor (Biacore/GE Healthcare) at 25 and 37° C. ALK7 antibodies were captured on custom made FAB chip. A concentration series of ALK7-Fc comprising protein was injected over the flow cells at a flow rate of […]. To obtain kinetic rate constants the corrected data were fit to a 1:1 interaction model using BiaEvaluation software (GE Healthcare). The equilibrium binding constant KD was determined by the ratio of binding rate constants kd/ka.
A general note: Surface plasmon resonance follows binding to a sensor surface in real time, without labels.

The target of assay [2] is T2, rat Alk7-Fc comprising protein (rat, UniProt P70539 26-113).
T2 construct: not shown: Fc portion and any linker of the Alk7-Fc comprising protein are not described
T2 sequence: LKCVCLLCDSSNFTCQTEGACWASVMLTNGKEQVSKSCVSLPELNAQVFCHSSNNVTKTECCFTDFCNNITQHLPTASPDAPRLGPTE
The assay can be described thus: SPR (Biacore T100/T200), antibody captured on FAB chip, Alk7-Fc analyte, 1:1 fit. Here is the method:
as §1

Positions count from the first letter of the chain named.

T1 sequence (Q8NER5 22-113): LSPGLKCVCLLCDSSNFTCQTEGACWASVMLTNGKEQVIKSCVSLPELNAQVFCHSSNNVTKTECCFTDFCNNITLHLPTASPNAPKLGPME

B1: G05 (antibody, V domains shown)
VH: QVQLVQSGAEVKKPGSSVKVSCKASGGTFSGQAISWVRQAPGQGLEWMGGIIPSFGTARYAQKFQGRVTITADESTSTAYMELSSLRSEDTAVYYCARTPYYDSSGYLDVWGQGTMVTVSS
VL: DIQMTQSPSSLSASVGDRVTITCQASHDIDNYLNWYQQKPGKAPKLLIYYASNLKTGVPSRFSGSGSGTDFTFTISSLQPEDIATYYCQQSRASPPTFGGGTKVEIK
notes: also called mAb G05; ALK7 mAb G05
A word on the Kd: it is the equilibrium constant for the complex coming apart. Lower therefore signals higher affinity. The koff is the rate constant with which the complex falls apart. Read a low koff as a long-lived complex. Broadly, the kon is a measure of how fast the partners come together. Read a high kon as fast association. On to B1, for which, in assay [1], binding was characterised by a dissociation constant (Kd) of 0.87 nM, the koff is 2.59e-05 s⁻¹ and the kon came to 29900 M⁻¹ s⁻¹.

B2: C03 (antibody, V domains shown)
VH: QLQLQESGPGLVKPSETLSLTCTVSGGSISSSAYYWAWIRQPPGKGLEWIGSIYLSGSTTYNPSLKSRVTISVDTSKNQFSLKLSSVTAADTAVYYCARDGRYQSRSPDYYYGMDVWGQGTTVTVSS
VL: EIVLTQSPGTLSLSPGERATLSCKASQSVSSSYLAWYQQKPGQAPRLLIYGAFSRANGIPDRFSGSGSGTDFTLTISRLEPEDFAVYYCQQLVSYPFTFGGGTKVEIK
notes: also called mAb C03; ALK7 mAb C03
In assay [1], B2 showed a Kd of 0.33 nM, a koff of 1.27e-05 s⁻¹ and a kon of 38300 M⁻¹ s⁻¹.

B3: J01 (antibody, V domains shown)
VH: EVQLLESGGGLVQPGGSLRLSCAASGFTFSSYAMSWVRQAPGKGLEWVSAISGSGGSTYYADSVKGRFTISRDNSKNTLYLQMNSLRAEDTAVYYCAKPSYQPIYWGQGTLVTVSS
VL: DIQMTQSPSSVSASVGDRVTITCRASQGISSWLAWYQQKPGKAPKLLIYAASSLQSGVPSRFSGSGSGTDFTLTISSLQPEDFATYYCQQAASYPLTFGGGTKVEIK
notes: also called antibody J01
As to B3, the koff in assay [2] came to 0.000478 s⁻¹.

B4: J02 (antibody, V domains shown)
VH: EVQLLESGGGLVQPGGSLRLSCAASGFTFSVYAMSWVRQAPGKGLEWVSAISGSGDSTVYADSVKGRFTISRDNSKNTLYLQMNSLRAEDTAVYYCAKPSYQPIYWGQGTLVTVSS
VL: B3 VL
notes: also called mAb J02; ALK7 mAb J02
In assay [1], B4 yielded a Kd of 5.33 nM, a koff of 0.000126 s⁻¹ and a kon of 23600 M⁻¹ s⁻¹.

B5: K02 (antibody, V domains shown)
VH: QVQLVQSGAEVKKPGSSVKVSCKASGGTFSSSAIGWVRQAPGQGLEWMGGIWPIFGTALYAQKFQGRVTITADESTSTAYMELSSLRSEDTAVYYCARDPREYIHVFDIWGQGTMVTVSS
VL: B3 VL with V11L, G28S, W32Y, A34N, A50G, A92Y, Y94F, L96W, T102I
notes: also called mAb K02; KO2
In assay [1], B5 yielded a Kd of 12.4 nM, a koff of 0.000291 s⁻¹ and a kon of 23500 M⁻¹ s⁻¹.

B6: L02 (antibody, V domains shown)
VH: QVQLVQSGAEVKKPGASVKVSCKASGYTFAGYNMHWVRQAPGQGLEWVGIINPNSGWTNYAQKFQGRVTMTRDTSVSAAYMELSRLRSDDTAVYYCARDPVGARYEVFDYWGQGTLVTVSS
VL: EIVMTQSPATLSVSPGERATLSCRASQSVSSALAWYQQKPGQAPRLLIYSAFTRASGIPARFSGSGSGTEFTLTISSLQSEDFAVYYCQQAWAFPLTFGGGTKVEIK
notes: also called mAb L02
In assay [1], B6 returned a Kd of 0.44 nM, a koff of 1.21e-05 s⁻¹ and a kon of 27400 M⁻¹ s⁻¹.
